Reference: US20160145684A1

Legend:
[1] = target: Human statherin protein (human) (UniProt P02808); assay: indirect ELISA; coat: sample 1, 50 uL saliva/100 uL in urine, diluted 1:40; replicate R2
[2] = target: Human statherin protein (human) (UniProt P02808); assay: indirect ELISA; coat: sample 7, 0.78125 uL saliva/100 uL in urine, diluted 1:40; mean minus saliva-free urine blank
[3] = target: Human statherin protein (human) (UniProt P02808); assay: indirect ELISA; coat: sample 1, 50 uL saliva/100 uL in urine, diluted 1:40; replicate R1
[4] = target: Human statherin protein (human) (UniProt P02808); assay: indirect ELISA; coat: A-Saliva (pure saliva of individual A) diluted 1:40; replicate R1
[5] = target: Human statherin protein (human) (UniProt P02808); assay: indirect ELISA; coat: sample 5, 3.125 uL saliva/100 uL in urine, diluted 1:40; mean minus saliva-free urine blank
[6] = target: Human statherin protein (human) (UniProt P02808); assay: indirect ELISA; coat: A-SP-U (about 500 uL spit in 30 mL urine, individual A) diluted 1:40; replicate R3
[7] = target: Human statherin protein (human) (UniProt P02808); assay: indirect ELISA; coat: B-Saliva (pure saliva of individual B) diluted 1:40; replicate R1
[8] = target: Human statherin protein (human) (UniProt P02808); assay: indirect ELISA; coat: B-Saliva (pure saliva of individual B) diluted 1:40; mean of triplicate
[9] = target: Human statherin protein (human) (UniProt P02808); assay: indirect ELISA; coat: sample 5, 3.125 uL saliva/100 uL in urine, diluted 1:40; replicate R1
[10] = target: Human statherin protein (human) (UniProt P02808); assay: indirect ELISA; coat: sample 1, 50 uL saliva/100 uL in urine, diluted 1:40; replicate R3
[11] = target: Human statherin protein (human) (UniProt P02808); assay: indirect ELISA; coat: A-SB-U (buccal swab stirred in 30 mL urine, individual A) diluted 1:40; replicate R2
[12] = target: Human statherin protein (human) (UniProt P02808); assay: indirect ELISA; coat: B-SP-U (about 500 uL spit in 30 mL urine, individual B) diluted 1:40; replicate R3
[13] = target: Human statherin protein (human) (UniProt P02808); assay: indirect ELISA; coat: sample 3, 12.5 uL saliva/100 uL in urine, diluted 1:40; replicate R3
[14] = target: Human statherin protein (human) (UniProt P02808); assay: indirect ELISA; coat: B-SB-U (buccal swab stirred in 30 mL urine, individual B) diluted 1:40; replicate R1
[15] = target: Human statherin protein (human) (UniProt P02808); assay: indirect ELISA; coat: sample 5, 3.125 uL saliva/100 uL in urine, diluted 1:40; replicate R3
[16] = target: Human statherin protein (human) (UniProt P02808); assay: indirect ELISA; coat: sample 3, 12.5 uL saliva/100 uL in urine, diluted 1:40; replicate R1
[17] = target: Human statherin protein (human) (UniProt P02808); assay: indirect ELISA; coat: A-SP-U (about 500 uL spit in 30 mL urine, individual A) diluted 1:40; replicate R2
[18] = target: Human statherin protein (human) (UniProt P02808); assay: indirect ELISA; coat: sample 2, 25 uL saliva/100 uL in urine, diluted 1:40; replicate R3
[19] = target: Human statherin protein (human) (UniProt P02808); assay: indirect ELISA; coat: B-Saliva (pure saliva of individual B) diluted 1:40; replicate R2
[20] = target: Human statherin protein (human) (UniProt P02808); assay: indirect ELISA; coat: B-SB-U (buccal swab stirred in 30 mL urine, individual B) diluted 1:40; replicate R3
[21] = target: Human statherin protein (human) (UniProt P02808); assay: indirect ELISA; coat: sample 4, 6.25 uL saliva/100 uL in urine, diluted 1:40; replicate R2
[22] = target: Human statherin protein (human) (UniProt P02808); assay: indirect ELISA; coat: sample 3, 12.5 uL saliva/100 uL in urine, diluted 1:40; replicate R2
[23] = target: Human statherin protein (human) (UniProt P02808); assay: indirect ELISA; coat: A-SP-U (about 500 uL spit in 30 mL urine, individual A) diluted 1:40; replicate R1
[24] = target: Human statherin protein (human) (UniProt P02808); assay: indirect ELISA; coat: sample 4, 6.25 uL saliva/100 uL in urine, diluted 1:40; mean of triplicate
[25] = target: Human statherin protein (human) (UniProt P02808); assay: indirect ELISA; coat: sample 6, 1.5625 uL saliva/100 uL in urine, diluted 1:40; mean minus saliva-free urine blank
[26] = target: Human statherin protein (human) (UniProt P02808); assay: indirect ELISA; coat: sample 1, 50 uL saliva/100 uL in urine, diluted 1:40; mean minus saliva-free urine blank
[27] = target: Human statherin protein (human) (UniProt P02808); assay: indirect ELISA; coat: sample 4, 6.25 uL saliva/100 uL in urine, diluted 1:40; replicate R1
[28] = target: Human statherin protein (human) (UniProt P02808); assay: indirect ELISA; coat: sample 6, 1.5625 uL saliva/100 uL in urine, diluted 1:40; replicate R3
[29] = target: Human statherin protein (human) (UniProt P02808); assay: indirect ELISA; coat: sample 5, 3.125 uL saliva/100 uL in urine, diluted 1:40; replicate R2
[30] = target: Human statherin protein (human) (UniProt P02808); assay: indirect ELISA; coat: sample 2, 25 uL saliva/100 uL in urine, diluted 1:40; mean minus saliva-free urine blank
[31] = target: Human statherin protein (human) (UniProt P02808); assay: indirect ELISA; coat: B-SP-U (about 500 uL spit in 30 mL urine, individual B) diluted 1:40; replicate R2
[32] = target: Human statherin protein (human) (UniProt P02808); assay: indirect ELISA; coat: sample 6, 1.5625 uL saliva/100 uL in urine, diluted 1:40; mean of triplicate
[33] = target: Human statherin protein (human) (UniProt P02808); assay: indirect ELISA; coat: sample 4, 6.25 uL saliva/100 uL in urine, diluted 1:40; replicate R3
[34] = target: Human statherin protein (human) (UniProt P02808); assay: indirect ELISA; coat: sample 6, 1.5625 uL saliva/100 uL in urine, diluted 1:40; replicate R2
[35] = target: Human statherin protein (human) (UniProt P02808); assay: indirect ELISA; coat: sample 4, 6.25 uL saliva/100 uL in urine, diluted 1:40; mean minus saliva-free urine blank
[36] = target: Human statherin protein (human) (UniProt P02808); assay: indirect ELISA; coat: A-SB-U (buccal swab stirred in 30 mL urine, individual A) diluted 1:40; mean of triplicate
[37] = target: Human statherin protein (human) (UniProt P02808); assay: indirect ELISA; coat: sample 2, 25 uL saliva/100 uL in urine, diluted 1:40; replicate R2
[38] = target: Human statherin protein (human) (UniProt P02808); assay: indirect ELISA; coat: A-SP-U (about 500 uL spit in 30 mL urine, individual A) diluted 1:40; mean of triplicate
[39] = target: Human statherin protein (human) (UniProt P02808); assay: indirect ELISA; coat: sample 1, 50 uL saliva/100 uL in urine, diluted 1:40; mean of triplicate
[40] = target: Human statherin protein (human) (UniProt P02808); assay: indirect ELISA; coat: sample 2, 25 uL saliva/100 uL in urine, diluted 1:40; replicate R1
[41] = target: Human statherin protein (human) (UniProt P02808); assay: indirect ELISA; coat: A-Saliva (pure saliva of individual A) diluted 1:40; replicate R2
[42] = target: Human statherin protein (human) (UniProt P02808); assay: indirect ELISA; coat: sample 7, 0.78125 uL saliva/100 uL in urine, diluted 1:40; replicate R2
[43] = target: Human statherin protein (human) (UniProt P02808); assay: indirect ELISA; coat: A-SB-U (buccal swab stirred in 30 mL urine, individual A) diluted 1:40; replicate R1
[44] = target: Human statherin protein (human) (UniProt P02808); assay: indirect ELISA; coat: sample 6, 1.5625 uL saliva/100 uL in urine, diluted 1:40; replicate R1
[45] = target: Human statherin protein (human) (UniProt P02808); assay: indirect ELISA; coat: sample 7, 0.78125 uL saliva/100 uL in urine, diluted 1:40; mean of triplicate
[46] = target: Human statherin protein (human) (UniProt P02808); assay: indirect ELISA; coat: sample 2, 25 uL saliva/100 uL in urine, diluted 1:40; mean of triplicate
[47] = target: Human statherin protein (human) (UniProt P02808); assay: indirect ELISA; coat: sample 7, 0.78125 uL saliva/100 uL in urine, diluted 1:40; replicate R1
[48] = target: Human statherin protein (human) (UniProt P02808); assay: indirect ELISA; coat: B-SP-U (about 500 uL spit in 30 mL urine, individual B) diluted 1:40; mean of triplicate
[49] = target: Human statherin protein (human) (UniProt P02808); assay: indirect ELISA; coat: A-Saliva (pure saliva of individual A) diluted 1:40; replicate R3
[50] = target: Human statherin protein (human) (UniProt P02808); assay: indirect ELISA; coat: sample 5, 3.125 uL saliva/100 uL in urine, diluted 1:40; mean of triplicate
[51] = target: Human statherin protein (human) (UniProt P02808); assay: indirect ELISA; coat: A-SB-U (buccal swab stirred in 30 mL urine, individual A) diluted 1:40; replicate R3
[52] = target: Human statherin protein (human) (UniProt P02808); assay: indirect ELISA; coat: A-Saliva (pure saliva of individual A) diluted 1:40; mean of triplicate
[53] = target: Human statherin protein (human) (UniProt P02808); assay: indirect ELISA; coat: sample 7, 0.78125 uL saliva/100 uL in urine, diluted 1:40; replicate R3
[54] = target: Human statherin protein (human) (UniProt P02808); assay: indirect ELISA; coat: B-SB-U (buccal swab stirred in 30 mL urine, individual B) diluted 1:40; replicate R2
[55] = target: Human statherin protein (human) (UniProt P02808); assay: indirect ELISA; coat: B-SP-U (about 500 uL spit in 30 mL urine, individual B) diluted 1:40; replicate R1
[56] = target: Human statherin protein (human) (UniProt P02808); assay: indirect ELISA; coat: B-SB-U (buccal swab stirred in 30 mL urine, individual B) diluted 1:40; mean of triplicate
[57] = target: Human statherin protein (human) (UniProt P02808); assay: indirect ELISA; coat: B-Saliva (pure saliva of individual B) diluted 1:40; replicate R3
[58] = target: Human statherin protein (human) (UniProt P02808); assay: indirect ELISA; coat: sample 3, 12.5 uL saliva/100 uL in urine, diluted 1:40; mean of triplicate
[59] = target: Human statherin protein (human) (UniProt P02808); assay: indirect ELISA; coat: sample 3, 12.5 uL saliva/100 uL in urine, diluted 1:40; mean minus saliva-free urine blank

Chain of UniProt P02808 (P02808 20-62 limits assumed): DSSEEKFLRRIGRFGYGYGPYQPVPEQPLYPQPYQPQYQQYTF

Statherin Antibody (N-16), Santa Cruz Biotechnology, Inc. (Catalog No. sc-28112)
OD405 [1]: 0.151 OD405
OD405 Mean - Blank mean [2]: 0.032 OD405
OD405 [3]: 0.171 OD405
OD405 [4]: 1.21 OD405
OD405 Mean - Blank mean [5]: 0.091 OD405
OD405 [6]: 0.236 OD405
OD405 [7]: 0.325 OD405
OD405 Mean [8]: 0.336 OD405
OD405 [9]: 0.132 OD405
OD405 [10]: 0.144 OD405
OD405 [11]: 0.287 OD405
OD405 [12]: 0.165 OD405
OD405 [13]: 0.12 OD405
OD405 [14]: 0.318 OD405
OD405 [15]: 0.114 OD405
OD405 [16]: 0.161 OD405
OD405 [17]: 0.229 OD405
OD405 [18]: 0.114 OD405
OD405 [19]: 0.289 OD405
OD405 [20]: 0.289 OD405
OD405 [21]: 0.14 OD405
OD405 [22]: 0.129 OD405
OD405 [23]: 0.207 OD405
OD405 Mean [24]: 0.144 OD405
OD405 Mean - Blank mean [25]: 0.053 OD405
OD405 Mean - Blank mean [26]: 0.125 OD405
OD405 [27]: 0.16 OD405
OD405 [28]: 0.075 OD405
OD405 [29]: 0.117 OD405
OD405 Mean - Blank mean [30]: 0.095 OD405
OD405 [31]: 0.168 OD405
OD405 Mean [32]: 0.083 OD405
OD405 [33]: 0.131 OD405
OD405 [34]: 0.083 OD405
OD405 Mean - Blank mean [35]: 0.114 OD405
OD405 Mean [36]: 0.303 OD405
OD405 [37]: 0.114 OD405
OD405 Mean [38]: 0.224 OD405
OD405 Mean [39]: 0.155 OD405
OD405 [40]: 0.147 OD405
OD405 [41]: 1.22 OD405
OD405 [42]: 0.06 OD405
OD405 [43]: 0.331 OD405
OD405 [44]: 0.091 OD405
OD405 Mean [45]: 0.062 OD405
OD405 Mean [46]: 0.125 OD405
OD405 [47]: 0.069 OD405
OD405 Mean [48]: 0.168 OD405
OD405 [49]: 1.24 OD405
OD405 Mean [50]: 0.121 OD405
OD405 [51]: 0.291 OD405
OD405 Mean [52]: 1.22 OD405
OD405 [53]: 0.057 OD405
OD405 [54]: 0.311 OD405
OD405 [55]: 0.171 OD405
OD405 Mean [56]: 0.306 OD405
OD405 [57]: 0.394 OD405
OD405 Mean [58]: 0.137 OD405
OD405 Mean - Blank mean [59]: 0.107 OD405
